Results taken from US20240390512A1, “METHODS OF TREATING CHEMOTHERAPY-RESISTANT CANCER WITH AN ANTIBODY-DRUG CONJUGATE” (DAIICHI SANKYO COMPANY, LIMITED, priority 2021, published 2024).
Changes are numbered by the printed parent chain.

B1: rG055: rat anti-human CDH6 monoclonal antibody produced by hybridoma rG055; variable regions SEQ ID NO: 20 and 25 (antibody, listed as Rattus norvegicus, V domains shown)
VL: DVQMTHSPSYLAASPGESVSISCKTSKNISNYLVWYQQKPGEAYKLLIYSGSTLQSGTPSRFSGSGSGTDFTLTIRSLEPEDFGLYFCQQYYEKPFTFGSGTKLEIKRA
VH: EVQLQESGPGLVRPSQSLSLSCSVTDYSITSNYWGWIRRFPGNKMEWMGYITYSGYTSYNPSLQSRISITRDTSKNQFFLQLNSVTAEDTATYYCARSINHGGYSYVVDAWGPGASVTVSS
B2: rG061: rat anti-human CDH6 monoclonal antibody produced by hybridoma rG061; variable regions SEQ ID NO: 40 and 45 (antibody, listed as Rattus norvegicus, V domains shown)
VL: B1 VL with H6Q, T25A, S26T, N28S, V34A, L46V, F87S, F96L
VH: EVQLQESGPGLVKPSQSLSLTCSVTGYSITTYYWGWIRKFPGNKMEWMGYISYSGRTSYNPSLKSRMSITRDASKNQFFLQLNSVTTDDTATYYCARSPINHGGYWYFDFWGPGTMVTVSS
B3: rG056: rat anti-human CDH6 monoclonal antibody produced by hybridoma rG056; variable regions SEQ ID NO: 30 and 35 (antibody, listed as Rattus norvegicus, V domains shown)
VL: DVQMTQSPSSLAASPGESVSISCRATKSIGIYLAWYQQKPGKTFKLLIYSGSTLQSGTPSRFSGSGSGTDFTLTIRSLEPEDFGLYFCQQFYENPFTFGSGTKLEIRRA
VH: EVQLQESGPGLVKPSQSLSLTCSVTDYSITTYFWGWIRKFPGNKMEWMGYMSYRGGTSYNPSLKSRISITRDTSKNQFFLQLNSVTTEDTATYYCARCPNYGGHSLVFDYWGQGVMVTVSS
B4: rG019: rat anti-human CDH6 monoclonal antibody produced by hybridoma rG019; variable regions SEQ ID NO: 10 and 15 (antibody, listed as Rattus norvegicus, V domains shown)
VL: DIQMTQSPSLLSASVGDRVTLNCKASQNIYKNLAWYQQKLGEGPKLLIYDANTLQTGIPSRFSGSGSGSDFTLTISSLQPEDVATYFCQQYYSGWAFGGVTNLELKRA
VH: QVQLQQSGAELVKPGSSVKISCKASGYTFTRNFMHWIKQQPGNGLEWIGWIYCGDGETEYNQKFNGKATLTADRSSSTAYMELSRLTSEDSAVYFCARGVYGGFAGGYFDFWGQGVMVTVSS

Each molecule was assayed on cynomolgus monkey CDH6 (assay: Hybridoma screening by Cell-ELISA and flow cytometry). Conditions: hybridoma culture supernatant; cells transfected with pcDNA3.1-cynoCDH6.
Assay type: binding
Method: 293α cells (a stable expression cell line derived from HEK293 cells expressing integrin αv and integrin β3) were prepared at 5×10^5 cells/mL in DMEM medium supplemented with 10% FBS. In accordance with transduction procedures for using Lipofectamine 2000 (Thermo Fisher Scientific Inc.), DNA of pcDNA3.1-hCDH6 or pcDNA3.1-cynoCDH6, or pcDNA3.1 as a negative control was introduced into the 293α cells, and the cells were dispensed in an amount of 100 μL/well onto a 96-well plate (Corning Inc.). Thereafter, the cells were cultured under conditions of 37° C. and 5% CO2 in DMEM medium supplemented with 10% FBS for 24 to 27 hours. The obtained transfected cells were used for Cell-ELISA in an adhesive state.
The culture supernatant of the 293α cells transfected with the expression vector prepared in Reference Example 1)-4-1 was removed, and the culture supernatant from each hybridoma was then added to the 293α cells transfected with pcDNA3.1-hCDH6 or pcDNA3.1-cynoCDH6, or pcDNA3.1. The cells were left standing at 4° C. for 1 hour. The cells in the wells were washed once with PBS (+) supplemented with 5% FBS, and thereafter, Anti-Rat IgG-Peroxidase antibody produced in rabbit (Sigma-Aldrich Co. LLC) that had been 500-fold diluted with PBS (+) supplemented with 5% FBS was added to the wells. The cells were left standing at 4° C. for 1 hour. The cells in the wells were washed three times with PBS (+) supplemented with 5% FBS, and thereafter, OPD coloring solution (which had been prepared by dissolving o-phenylenediamine dihydrochloride (Wako Pure Chemical Industries, Ltd.) and H2O2 in an OPD solution (0.05 M trisodium citrate, 0.1 M disodium hydrogen phosphate 12-water; pH 4.5), so that the substances became 0.4 mg/ml and 0.6% (v/v), respectively, was added in an amount of 100 μL/well to the wells. A coloring reaction was carried out with occasional stirring. Thereafter, 1 M HCl was added to the plate (100 μL/well) to terminate the coloring reaction, followed by measurement of the absorbance at 490 nm using a plate reader (ENVISION: PerkinElmer, Inc.).
293T cells were seeded in a 225-cm^2 flask (Sumitomo Bakelite Co., Ltd.) at 5×10^4 cells/cm^2, and the cells were then cultured overnight under conditions of 37° C. and 5% CO2 in DMEM medium supplemented with 10% FBS. pcDNA3.1-cynoCDH6 or pcDNA3.1 as a negative control was introduced into the 293T cells using Lipofectamine 2000, and the cells were further cultured overnight under conditions of 37° C. and 5% CO2. […]
The binding specificity to cynomolgus monkey CDH6 of an antibody produced from the human CDH6- and cynomolgus monkey CDH6-binding antibody-producing hybridomas that had been selected by Cell-ELISA in Reference Example 1)-4 was further confirmed by flow cytometry. […] The data was analyzed using FlowJo (Tree Star, Inc.). […]

Sequence of cynomolgus monkey CDH6 (as listed by the source): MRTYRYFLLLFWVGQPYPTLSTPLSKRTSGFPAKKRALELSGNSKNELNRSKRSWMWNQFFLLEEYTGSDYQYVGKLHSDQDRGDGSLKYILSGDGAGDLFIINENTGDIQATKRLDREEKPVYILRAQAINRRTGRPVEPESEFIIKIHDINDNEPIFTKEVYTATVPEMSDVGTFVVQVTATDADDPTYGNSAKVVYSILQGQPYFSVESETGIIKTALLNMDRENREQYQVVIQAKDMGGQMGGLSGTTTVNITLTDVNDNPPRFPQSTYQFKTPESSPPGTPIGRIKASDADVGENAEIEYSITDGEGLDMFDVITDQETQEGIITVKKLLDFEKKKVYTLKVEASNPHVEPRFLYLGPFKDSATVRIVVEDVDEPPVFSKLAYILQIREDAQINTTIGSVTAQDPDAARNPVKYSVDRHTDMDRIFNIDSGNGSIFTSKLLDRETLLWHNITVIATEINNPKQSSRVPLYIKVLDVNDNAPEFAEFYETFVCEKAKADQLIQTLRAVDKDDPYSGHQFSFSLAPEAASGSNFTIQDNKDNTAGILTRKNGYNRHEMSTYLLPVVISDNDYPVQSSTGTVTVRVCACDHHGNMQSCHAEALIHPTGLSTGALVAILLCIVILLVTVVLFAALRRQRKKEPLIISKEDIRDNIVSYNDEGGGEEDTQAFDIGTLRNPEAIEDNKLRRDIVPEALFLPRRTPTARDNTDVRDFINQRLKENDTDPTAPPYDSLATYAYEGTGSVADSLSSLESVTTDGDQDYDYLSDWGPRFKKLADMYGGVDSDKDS

Row | Molecule | binding to monkey CDH6
1 | B1 | bind specifically and strongly
2 | B2 | bind specifically and strongly
3 | B3 | bind specifically and strongly
4 | B4 | bind specifically and strongly
